B1: CD19-F1-NKp46-4 (bispecific antibody)
chain: DIQLTQSPASLAVSLGQRATISCKASQSVDYDGDSYLNWYQQIPGQPPKLLIYDASNLVSGIPPRFSGSGSGTDFTLNIHPVEKVDAATYHCQQSTEDPWTFGGGTKLEIKGGGGSGGGGSGGGGSQVQLQQSGAELVRPGSSVKISCKASGYAFSSYWMNWVKQRPGQGLEWIGQIWPGDGDTNYNGKFKGKATLTADESSSTAYMQLSSLASEDSAVYFCARRETTTVGRYYYAMDYWGQGTTVTVSSGGGSSAPELLGGPSVFLFPPKPKDTLMISRTPEVTCVVVDVSHEDPEVKFNWYVDGVEVHNAKTKPREEQYNSTYRVVSVLTVLHQDWLNGKEYKCKVSNKALPAPIEKTISKAKGQPREPQVYTKPPSREEMTKNQVSLSCLVKGFYPSDIAVEWESNGQPENNYKTTVPVLDSDGSFRLASYLTVDKSRWQQGNVFSCSVMHEALHNHYTQKSLSLSPGSTGSQVQLQQSAVELARPGASVKMSCKASGYTFTSFTMHWVKQRPGQGLEWIGYINPSSGYTEYNQKFKDKTTLTADKSSSTAYMQLDSLTSDDSAVYYCVRGSSRGFDYWGQGTLVTVSAVEGGSGGSGGSGGSGGVDDIQMIQSPASLSVSVGETVTITCRASENIYSNLAWFQQKQGKSPQLLVYAATNLADGVPSRFSGSGSGTQYSLKINSLQSEDFGIYYCQHFWGTPRTFGGGTKLEIK
notes: Single chain F1 format
B2: CD19-F1-NKp46-2 (bispecific antibody)
chain: DIQLTQSPASLAVSLGQRATISCKASQSVDYDGDSYLNWYQQIPGQPPKLLIYDASNLVSGIPPRFSGSGSGTDFTLNIHPVEKVDAATYHCQQSTEDPWTFGGGTKLEIKGGGGSGGGGSGGGGSQVQLQQSGAELVRPGSSVKISCKASGYAFSSYWMNWVKQRPGQGLEWIGQIWPGDGDTNYNGKFKGKATLTADESSSTAYMQLSSLASEDSAVYFCARRETTTVGRYYYAMDYWGQGTTVTVSSGGGSSAPELLGGPSVFLFPPKPKDTLMISRTPEVTCVVVDVSHEDPEVKFNWYVDGVEVHNAKTKPREEQYNSTYRVVSVLTVLHQDWLNGKEYKCKVSNKALPAPIEKTISKAKGQPREPQVYTKPPSREEMTKNQVSLSCLVKGFYPSDIAVEWESNGQPENNYKTTVPVLDSDGSFRLASYLTVDKSRWQQGNVFSCSVMHEALHNHYTQKSLSLSPGSTGSEVQLQESGPGLVKPSQSLSLTCTVTGYSITSDYAWNWIRQFPGNKLEWMGYITYSGSTSYNPSLESRISITRDTSTNQFFLQLNSVTTEDTATYYCARGGYYGSSWGVFAYWGQGTLVTVSAVEGGSGGSGGSGGSGGVDDIQMTQSPASLSASVGETVTITCRVSENIYSYLAWYQQKQGKSPQLLVYNAKTLAEGVPSRFSGSGSGTQFSLKINSLQPEDFGSYYCQHHYGTPWTFGGGTKLEIK
notes: Single chain F1 format; also called bi-specific antibody NKp46-2 (F1)
B3: CD19-F1-NKp46-3 (bispecific antibody)
chain: DIQLTQSPASLAVSLGQRATISCKASQSVDYDGDSYLNWYQQIPGQPPKLLIYDASNLVSGIPPRFSGSGSGTDFTLNIHPVEKVDAATYHCQQSTEDPWTFGGGTKLEIKGGGGSGGGGSGGGGSQVQLQQSGAELVRPGSSVKISCKASGYAFSSYWMNWVKQRPGQGLEWIGQIWPGDGDTNYNGKFKGKATLTADESSSTAYMQLSSLASEDSAVYFCARRETTTVGRYYYAMDYWGQGTTVTVSSGGGSSAPELLGGPSVFLFPPKPKDTLMISRTPEVTCVVVDVSHEDPEVKFNWYVDGVEVHNAKTKPREEQYNSTYRVVSVLTVLHQDWLNGKEYKCKVSNKALPAPIEKTISKAKGQPREPQVYTKPPSREEMTKNQVSLSCLVKGFYPSDIAVEWESNGQPENNYKTTVPVLDSDGSFRLASYLTVDKSRWQQGNVFSCSVMHEALHNHYTQKSLSLSPGSTGSEVQLQQSGPELVKPGASVKISCKTSGYTFTEYTMHWVKQSHGKSLEWIGGISPNIGGTSYNQKFKGKATLTVDKSSSTAYMELRSLTSEDSAVYYCARRGGSFDYWGQGTTLTVSSVEGGSGGSGGSGGSGGVDDIVMTQSPATLSVTPGDRVSLSCRASQSISDYLHWYQQKSHESPRLLIKYASQSISGIPSRFSGSGSGSDFTLSINSVEPEDVGVYYCQNGHSFPLTFGAGTKLELK
notes: Single chain F1 format; also called bi-specific antibody NKp46-3 (F1)

What follows are binders tested against T1, Human NKp46 recombinant proteins (human, UniProt O76036 22-258) (assay: SPR, bispecific captured on Protein-A chip, human NKp46 injected, 1:1 kinetic model).
T1 construct: also called recombinant human NKp46 proteins
Protocol: SPR measurements were performed on a Biacore T100 apparatus (Biacore GE Healthcare) at 25° C. In all Biacore experiments HBS-EP+(Biacore GE Healthcare) and NaOH 10 mM served as running buffer and regeneration buffer respectively. Sensorgrams were analyzed with Biacore T100 Evaluation software. Protein-A was purchase from (GE Healthcare). Human NKp46 recombinant proteins were cloned, produced and purified at Innate Pharma.
Protein-A proteins were immobilized covalently to carboxyl groups in the dextran layer on a Sensor Chip CM5. The chip surface was activated with EDC/NHS (N-ethyl-N′-(3-dimethylaminopropyl) carbodiimidehydrochloride and N-hydroxysuccinimide (Biacore GE Healthcare)). Protein-A was diluted to 10 μg/ml in coupling buffer (10 mM acetate, pH 5.6) and injected until the appropriate immobilization level was reached (i.e. 2000 RU). Deactivation of the remaining activated groups was performed using 100 mM ethanolamine pH 8 (Biacore GE Healthcare).
Monovalent affinity study was done following a regular Capture-Kinetic protocol recommended by the manufacturer (Biacore GE Healthcare kinetic wizard). Seven serial dilutions of human NKp46 recombinant proteins, ranging from 6.25 to 400 nM were sequentially injected over the captured Bi-Specific antibodies and allowed to dissociate for 10 min before regeneration. The entire sensorgram sets were fitted using the 1:1 kinetic binding model.
Binder B1 has a Kd of 4.85 nM, a koff of 0.000653 s⁻¹ and a kon of 135000 M⁻¹ s⁻¹.
Work on B2 yielded a Kd of 8.93 nM, a koff of 0.00145 s⁻¹ and a kon of 162000 M⁻¹ s⁻¹.
Binder B3 has a Kd of 9.14 nM, a koff of 0.000644 s⁻¹ and a kon of 70500 M⁻¹ s⁻¹.
